The chains are these.
B1: nitrate reductase (NarB) (Synechococcus elongatus PCC 7942 = FACHB-805; R160Q) (protein)
chain: MIDTAKTLCPYCGVGCGLEAVPPAQPGRATVRDREGTPIWQIRGDRQHPSSQGMVCVKGATVAESVSKSRLKYPMFRASLDDPFTEISWDEALDRLCDRIQQTQADYGKDGICFYGSGQFQTEDYYIAQKLVKGCLGTNNFDTNSQLCMSSAVSAYSLCLGSDGPPACYEDLDLADCLLIVGSNTAECHPILFNRYRKRHKQGGTNLIVVDPRCTPTAEVADLHLALKPGSDVALLNGLGWLLYQMGYVKKDFIANQTEGFEDWLAIIEDYPPQRTAELTGLAVAELVRAADLIASAQRWLSLWSMGVNQSIQGTAKATSLINLHLLTRQIGLPGCGPFSLTGQPNAMGGRETGGLAHLLPGYRKVIDPQHRADVETIWGLPMGSISPQPGRTAWQMIEGLEQGAVGFLWVAATNPAVSLPDVKRAQAALKRSPFTVLQDAYHPTETTTYAHLLLPAAQWSEKTGTMTNSERRVTLCQAFRQPPGEARADWQIFAEVGRRLGFAFDYTDAAAVFAEYVQVTAGRLCDLSGLSHELLAQAGPQQWPFPAGAEPTTESKRLYTKHHFAYADGRARFQPFHHLGVAEPPDDRYPLVLTVGRLYGHWHTQTRTGRIDKINKLHPSAFVEIHPRDADRYNISEGQAVVIRSRRGEGCFPAKVTTAISPGVLFVPMHWGALWGDRTEANALTHPAACPISGEPELKACAVQIEAASSTFTI
B2: nitrate reductase (NarB) (Synechococcus elongatus PCC 7942 = FACHB-805; K144Q) (protein)
chain: MIDTAKTLCPYCGVGCGLEAVPPAQPGRATVRDREGTPIWQIRGDRQHPSSQGMVCVKGATVAESVSKSRLKYPMFRASLDDPFTEISWDEALDRLCDRIQQTQADYGKDGICFYGSGQFQTEDYYIAQQLVKGCLGTNNFDTNSRLCMSSAVSAYSLCLGSDGPPACYEDLDLADCLLIVGSNTAECHPILFNRYRKRHKQGGTNLIVVDPRCTPTAEVADLHLALKPGSDVALLNGLGWLLYQMGYVKKDFIANQTEGFEDWLAIIEDYPPQRTAELTGLAVAELVRAADLIASAQRWLSLWSMGVNQSIQGTAKATSLINLHLLTRQIGLPGCGPFSLTGQPNAMGGRETGGLAHLLPGYRKVIDPQHRADVETIWGLPMGSISPQPGRTAWQMIEGLEQGAVGFLWVAATNPAVSLPDVKRAQAALKRSPFTVLQDAYHPTETTTYAHLLLPAAQWSEKTGTMTNSERRVTLCQAFRQPPGEARADWQIFAEVGRRLGFAFDYTDAAAVFAEYVQVTAGRLCDLSGLSHELLAQAGPQQWPFPAGAEPTTESKRLYTKHHFAYADGRARFQPFHHLGVAEPPDDRYPLVLTVGRLYGHWHTQTRTGRIDKINKLHPSAFVEIHPRDADRYNISEGQAVVIRSRRGEGCFPAKVTTAISPGVLFVPMHWGALWGDRTEANALTHPAACPISGEPELKACAVQIEAASSTFTI
B3: nitrate reductase (NarB) (Synechococcus elongatus PCC 7942 = FACHB-805) (protein)
chain: MIDTAKTLCPYCGVGCGLEAVPPAQPGRATVRDREGTPIWQIRGDRQHPSSQGMVCVKGATVAESVSKSRLKYPMFRASLDDPFTEISWDEALDRLCDRIQQTQADYGKDGICFYGSGQFQTEDYYIAQKLVKGCLGTNNFDTNSRLCMSSAVSAYSLCLGSDGPPACYEDLDLADCLLIVGSNTAECHPILFNRYRKRHKQGGTNLIVVDPRCTPTAEVADLHLALKPGSDVALLNGLGWLLYQMGYVKKDFIANQTEGFEDWLAIIEDYPPQRTAELTGLAVAELVRAADLIASAQRWLSLWSMGVNQSIQGTAKATSLINLHLLTRQIGLPGCGPFSLTGQPNAMGGRETGGLAHLLPGYRKVIDPQHRADVETIWGLPMGSISPQPGRTAWQMIEGLEQGAVGFLWVAATNPAVSLPDVKRAQAALKRSPFTVLQDAYHPTETTTYAHLLLPAAQWSEKTGTMTNSERRVTLCQAFRQPPGEARADWQIFAEVGRRLGFAFDYTDAAAVFAEYVQVTAGRLCDLSGLSHELLAQAGPQQWPFPAGAEPTTESKRLYTKHHFAYADGRARFQPFHHLGVAEPPDDRYPLVLTVGRLYGHWHTQTRTGRIDKINKLHPSAFVEIHPRDADRYNISEGQAVVIRSRRGEGCFPAKVTTAISPGVLFVPMHWGALWGDRTEANALTHPAACPISGEPELKACAVQIEAASSTFTI
B4: nitrate reductase (NarB) (Synechococcus elongatus PCC 7942 = FACHB-805; K144R) (protein)
chain: MIDTAKTLCPYCGVGCGLEAVPPAQPGRATVRDREGTPIWQIRGDRQHPSSQGMVCVKGATVAESVSKSRLKYPMFRASLDDPFTEISWDEALDRLCDRIQQTQADYGKDGICFYGSGQFQTEDYYIAQRLVKGCLGTNNFDTNSRLCMSSAVSAYSLCLGSDGPPACYEDLDLADCLLIVGSNTAECHPILFNRYRKRHKQGGTNLIVVDPRCTPTAEVADLHLALKPGSDVALLNGLGWLLYQMGYVKKDFIANQTEGFEDWLAIIEDYPPQRTAELTGLAVAELVRAADLIASAQRWLSLWSMGVNQSIQGTAKATSLINLHLLTRQIGLPGCGPFSLTGQPNAMGGRETGGLAHLLPGYRKVIDPQHRADVETIWGLPMGSISPQPGRTAWQMIEGLEQGAVGFLWVAATNPAVSLPDVKRAQAALKRSPFTVLQDAYHPTETTTYAHLLLPAAQWSEKTGTMTNSERRVTLCQAFRQPPGEARADWQIFAEVGRRLGFAFDYTDAAAVFAEYVQVTAGRLCDLSGLSHELLAQAGPQQWPFPAGAEPTTESKRLYTKHHFAYADGRARFQPFHHLGVAEPPDDRYPLVLTVGRLYGHWHTQTRTGRIDKINKLHPSAFVEIHPRDADRYNISEGQAVVIRSRRGEGCFPAKVTTAISPGVLFVPMHWGALWGDRTEANALTHPAACPISGEPELKACAVQIEAASSTFTI

Substrate in this data set: O=[N+]([O-])O
Description: steady-state nitrate reductase assay, Michaelis-Menten fit. The format is biochemical, Synechococcus elongatus. The settings on record: saturating reduced ferredoxin (Synechocystis sp. PCC 6803) as electron donor.
One may read the Km as the substrate concentration at which the rate is half of its maximum. Regarding B1, the Km is 2.5 ± 0.3 µM.

With B2, the Km amounted to 3.3 ± 0.5 µM.

As to B3, the Km was found to be 6.0 ± 1.0 µM.

Regarding B4, the Km was 5.7 ± 2.5 µM.

The values above are taken from paper PMC3741069 (Biochemistry, 2013).
